Source: patent publication US20200123264A1 (Regeneron, published 2020)

Legend:
[1] = biological target: T1, extracellular domain of human LEPR with an N-terminal myc-myc tag, GPI-anchored on HEK293 cells (human, UniProt P48357 22-839, GPI anchor at the C-terminus ; A GPI anchor is attached at the C end through a carboxypeptidase M derived peptide. The protein is displayed on HEK293 cells.); assay: FACS, 10 nM Ab, HEK293/hLEPR-GPI cells, 1 µM Leptin
T1 construct: also called HEK293/hLEPR-GPI; Mycx2-hLEPR(Ecto)-GPI
T1 sequence: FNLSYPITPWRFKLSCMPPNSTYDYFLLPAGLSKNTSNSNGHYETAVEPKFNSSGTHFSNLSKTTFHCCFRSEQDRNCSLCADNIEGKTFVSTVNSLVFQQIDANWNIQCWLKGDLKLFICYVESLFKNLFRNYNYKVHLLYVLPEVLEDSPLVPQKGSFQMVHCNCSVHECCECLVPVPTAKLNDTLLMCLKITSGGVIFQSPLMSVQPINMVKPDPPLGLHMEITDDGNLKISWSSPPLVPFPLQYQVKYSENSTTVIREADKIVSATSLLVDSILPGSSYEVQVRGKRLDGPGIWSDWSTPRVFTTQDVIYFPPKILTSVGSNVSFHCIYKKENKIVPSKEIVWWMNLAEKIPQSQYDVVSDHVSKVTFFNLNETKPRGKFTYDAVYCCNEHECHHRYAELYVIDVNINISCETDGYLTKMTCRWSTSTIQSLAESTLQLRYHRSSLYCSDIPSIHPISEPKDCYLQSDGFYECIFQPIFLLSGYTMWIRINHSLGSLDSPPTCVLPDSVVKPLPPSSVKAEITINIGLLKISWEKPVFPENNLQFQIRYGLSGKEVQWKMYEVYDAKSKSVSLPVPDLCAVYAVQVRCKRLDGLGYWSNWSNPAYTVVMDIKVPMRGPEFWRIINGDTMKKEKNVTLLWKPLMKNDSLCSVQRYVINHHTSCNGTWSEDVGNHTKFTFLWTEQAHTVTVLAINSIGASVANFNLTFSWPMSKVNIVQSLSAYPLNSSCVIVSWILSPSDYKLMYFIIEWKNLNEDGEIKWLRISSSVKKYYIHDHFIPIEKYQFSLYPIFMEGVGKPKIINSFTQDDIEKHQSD
Description: For the FACS analysis, HEK293 parental cells and HEK293/hLEPR-GPI cells were dissociated and plated onto 96-well v-bottom plates at 5×10⁵ cells/well in PBS containing 2% FBS (FACS buffer). […] Cells were subsequently fixed using BD CytoFix™ (Becton Dickinson, #554655), filtered, and analyzed on a HyperCyt Flow Cytometer (Beckman Coulter). Unstained and secondary antibody alone controls were also tested for all cell lines. The results were analyzed using ForeCyt (IntelliCyt) and FlowJo version 10 softwares to determine the geometric means of fluorescence for viable cells. The geometric mean of fluorescence for each sample was then normalized to the geometric mean of unstained cells to obtain relative binding per condition referred to as “binding ratios”, and these binding ratios were recorded in Table 14 for each antibody tested.

[2] = biological target: T2, human LEPR CRH1 (D1,D2,D3)-MMH (human, UniProt P48357 22-427, limits assumed); assay: Luminex, myc-captured LEPR protein on beads, Ab 5 µg/mL
T2 construct: domain: CRH1-Ig (D1,D2,D3); Transiently expressed, captured from supernatant on anti-myc beads; also called CRH1-Ig (D1, D2, D3)
T2 sequence (looked up): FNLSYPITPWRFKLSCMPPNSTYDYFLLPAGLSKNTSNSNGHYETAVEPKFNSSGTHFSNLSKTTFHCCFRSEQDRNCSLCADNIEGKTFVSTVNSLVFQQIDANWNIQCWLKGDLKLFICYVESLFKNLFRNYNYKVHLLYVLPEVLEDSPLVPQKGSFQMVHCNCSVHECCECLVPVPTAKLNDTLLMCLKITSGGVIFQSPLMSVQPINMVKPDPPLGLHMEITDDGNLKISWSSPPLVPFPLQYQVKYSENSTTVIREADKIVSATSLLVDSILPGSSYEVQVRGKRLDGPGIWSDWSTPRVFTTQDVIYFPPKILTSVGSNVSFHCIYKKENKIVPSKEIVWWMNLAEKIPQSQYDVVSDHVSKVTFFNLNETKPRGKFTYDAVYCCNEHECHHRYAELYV
Description: (§1) Aliquots of microspheres with immobilized anti-myc monoclonal antibodies, prepared as described above, were added individually to 1 mL of the each of these protein supernatants. The microspheres were gently mixed, incubated for two hours at 25° C., washed twice with 1 mL of DBPS, centrifuged to remove the supernatant and finally resuspended in 1 mL of DPBS buffer. Forty eight μL of anti-myc IgG coupled microspheres from individual reactions with full length human LEPR and with each of the human LEPR domain proteins were withdrawn and mixed together in 3.6 mL of PBS+20 mg/mL BSA+0.05% sodium azide (blocking buffer).
(§2) From this mixed pool, 75 μL of microspheres were plated per well on a 96 well filter plate (Millipore, Cat. No: MSBVN1250) and mixed with 25 μL of individual anti-human LEPR monoclonal antibodies (0.5 or 5 μg/mL), incubated for two hours at 25° C. and then washed twice with 200 μL of DPBS with 0.05% Tween 20 (washing buffer). […] After 30 minutes, the samples were washed twice with 200 μL of washing buffer and resuspended in 150 μL of wash buffer. The Median Fluorescence intensity (MFI) of the microspheres was measured in a Luminex Analyzer.

[3] = biological target: T3, human LEPR Ig-CRH2-FNIII-MMH (human, UniProt P48357 330-839, limits assumed); assay: as above
T3 construct: domain: Ig-CRH2-FNIII; Transiently expressed, captured from supernatant on anti-myc beads
T3 sequence (looked up): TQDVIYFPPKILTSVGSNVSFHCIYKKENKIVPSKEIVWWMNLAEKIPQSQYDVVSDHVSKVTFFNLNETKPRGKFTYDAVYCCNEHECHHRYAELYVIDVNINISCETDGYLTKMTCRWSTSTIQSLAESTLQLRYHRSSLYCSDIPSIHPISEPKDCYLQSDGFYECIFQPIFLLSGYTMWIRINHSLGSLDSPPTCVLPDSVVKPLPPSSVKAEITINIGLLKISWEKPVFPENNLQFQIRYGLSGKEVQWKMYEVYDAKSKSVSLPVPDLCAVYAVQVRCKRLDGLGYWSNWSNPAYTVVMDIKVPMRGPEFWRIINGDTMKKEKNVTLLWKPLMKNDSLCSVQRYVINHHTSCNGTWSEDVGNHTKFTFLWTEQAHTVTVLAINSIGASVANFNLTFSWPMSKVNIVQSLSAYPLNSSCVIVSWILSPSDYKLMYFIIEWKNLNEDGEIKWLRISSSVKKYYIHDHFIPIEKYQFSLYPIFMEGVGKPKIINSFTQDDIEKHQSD
Description: as §1, §2

| Binder | Binding Ratio (normalized to unstained) [1] | Luminex MFI [2] | Luminex MFI [3] |
| --- | --- | --- | --- |
| H4H18464P2 (antibody, human IgG4, V domains shown, H4H prefix: human IgG4 Fc) VH: QVQLVQSGPEVKKPGASVKVSCKGSGYTFSWYGISWIRQAPGHGLEWMGWISASSGNTRFAQKVQGRLTMTTDTSTSTAYMELRSLRSDDTAVYYCARTGTRPFDYWGQGTLVTVSS VL: not shown | 3590 fold | 5560 MFI | 15100 MFI |
| H4H18462P2 (antibody, human IgG4, V domains shown, H4H prefix: human IgG4 Fc) VH: EVQLVESGGDLVQPGRSLRLSCAASGFTFSSFAMSWVRQAPGRGLEWVSSLSDSGDNTYYADSVKGRFTISRDNSKNTLYLQMNNLRAEDTAVYYCAKDLFSGWLFHGFDVWGQGTMVTVSS VL: not shown | 759 fold | 3960 MFI | 14900 MFI |
| H4H18440P2 (antibody, human IgG4, V domains shown, H4H prefix: human IgG4 Fc) VH: QVQLVESGGGMVKPGGSLRLSCAASGFTFSDYYMSWIRQAPGKGLEWISHISITGSTIYYADSVKGRFTISRDNAKNSLYLEMNRLRDEDTAVYYCTRDEPDIVLVRYGMDVWGQGTTVTVSS VL: not shown | 2560 fold | 8240 MFI | 32 MFI |
| H4H18439P2 (antibody, human IgG4, V domains shown, H4H prefix: human IgG4 Fc) VH: QLQLQESGPGLVKPSETLSLTCIVSGGDITSSSYYWNWIRQPPGKGLEWIGNIYYSGSTNYNPSLKSRVTISIDTSKSQFSLKLRSVTAADTAVYYCARLLRYFDWSKGYLDYWGQGTLVTVSS VL: not shown | 2480 fold | 8020 MFI | 43 MFI |
| H4H17322P2 (antibody, human IgG4, V domains shown, H4H prefix: human IgG4 Fc) VH: QLQLQESGPGLVKPSETLSLTCTVSGASISSSRFYGGWIRQPPGKGLEWIGDIYYSGNTYYNPSLQSRVTISVDTSKNQFSLKLSSVTAADTAVYYCARHLMITFGGLIVEGFDIWGQGTMVTVSS VL: not shown | – | 31 MFI | 15100 MFI |
| H4H18437P2 (antibody, human IgG4, V domains shown, H4H prefix: human IgG4 Fc) VH: QVQLVESGGGVVQPGRSLRLSCAASGFTFSSYGIHWVRQAPGKGLEWVAVISYDGNNKYYADSVKGRFTISRDNSKNTLYLQMNSLRAEDTAVYYCAKDLFLEWLFHGMGVWGQGTTVTVSS VL: not shown | – | 34 MFI | 15600 MFI |
| H4H18466P2 (antibody, human IgG4, V domains shown, H4H prefix: human IgG4 Fc) VH: EVQLVESGGGLVQPGGSLRLSCTASGFTFSSYGLHWVRQAPGKGLEYVSSINHNGGSKYYADSVKGRFTISRDNSKNTLFLQMGSLKTEDMAVYYCARDLFLEWLFHGFDIWGQGTMVTVSS VL: not shown | 398 fold | – | 11300 MFI |
| H4H18457P2 (antibody, human IgG4, V domains shown, H4H prefix: human IgG4 Fc) VH: EVQLVESGGSVVRPGESLRLSCAASGFTFDDYGMSWVRQAPGKGLEWVSGISWNGGITVYADSVKGRFTVSRDNAKNSLYLQMNSLRAEDTALYHCARARYGGADYWGQGTLVTVSS VL: not shown | 3110 fold | 31 MFI | 13200 MFI |
